The values that follow come from patent US20060281899A1, “Mutants of biotin binding protein” (priority 2002, published 2006).

Data set [1] is described as follows: Non-reducing SDS-PAGE thermostability, oligomeric forms after boiling. Type of data set: physicochemical. The settings on record: boiled 20 minutes. As to the method:
(§1) The heat stability of the AVRs was studied by using an SDS-PAGE-based method (Bayer, E. A., Ehrlich-Rogozinski, S. and Wilchek, M. (1996) Electrophoresis 17, 1319-1324). In this method, each protein sample was divided into two fractions one of which was kept biotin-free and the other was supplemented with an excess of biotin. The samples were then mixed with denaturing SDS-PAGE sample buffer (containing β-mercaptoethanol) and incubated at a given temperature for 20 minutes. After heat treatment, the samples were subjected to SDS-PAGE and visualised by staining with Coomassie brilliant blue. The relative proportions of tetrameric and monomeric forms of the AVR proteins (with avidin as the control) were detected. A similar assay, with β-mercaptoethanol omitted from the sample buffer, was performed to examine the presence of intersubunit disulfide-bridges. Sensitivity to proteinase K was studied both in the absence and in the presence of biotin as described (Laitinen, O. H., Airenne, K. J., Marttila, A. T., Kulik, T., Porkka, E., Bayer, E. A., Wilchek, M. and Kulomaa, M. S. (1999) FEBS Lett. 461, 52-8). The isoelectric point of each AVR was determined by isoelectric focusing as previously reported (Marttila, A. T., Airenne, K. J., Laitinen, O. H., Kulik, T., Bayer, E. A., Wilchek, M. and Kulomaa, M. S. (1998) FEBS Lett. 441, 313-317). The glycosylation patterns of the AVR proteins were studied by treating the proteins with Endo Hf and PNGase F glycosidase according to the manufacturer's instructions (New England Biolabs, Mass., USA).

A short description of data set [2]: IASyS reversibility of biotin binding of avidin and AVRs. To be noted: biotin cuvette, after addition of free biotin (0.17 mg/ml). The procedure: The reversibility of biotin binding was studied as follows: Avidin and the AVRs were allowed to bind to a biotin-coated cuvette. After measuring the initial binding (A) as described above, biotin-saturated (0.17 mg/ml) buffer was injected into the cuvette and the amount of proteins remaining bound was measured until no dissociation was seen, again as compared to the negative control cuvette (B). The measurement time was at least 20 minutes. The percent reversibility was calculated as follows: reversibility (%)=100*(A−B)/A. A−B is the amount of liberated proteins after biotin adding.

Another data set can be described thus: Isoelectric focusing. Type of data set: physicochemical. As to the method: as §1
Data set [3] is described as follows: IASyS optical biosensor, AVR binding in a biotin cuvette. To be noted: for kass / kdiss: biotin cuvette (as for Kd of these proteins); for Kd: biotin cuvette, 20.0° C. The procedure:
The biotin-binding characteristics of the AVR proteins were studied as previously described using the IASyS optical biosensor (Marttila, A. T., Airenne, K. J., Laitinen, O. H., Kulik, T., Bayer, E. A ., Wilchek, M. and Kulomaa, M. S. (1998) FEBS Lett. 441, 313-317; Laitinen, O. H., Airenne, K. J., Marttila, A. T., Kulik, T., Porkka, E., Bayer, E. A., Wilchek, M. and Kulomaa, M. S. (1999) FEBS Lett. 461, 52-8). Affinities were measured for 2-iminobiotin or biotin at 20.0° C. using a stirring power of 100%. Briefly, the protein under study in biotin-free buffer was allowed to bind to the biotin-coated surface of the IASyS cuvette. As a negative control, the protein under study was saturated with excess biotin prior to (and was also maintained under biotin excess upon) addition to the cuvette. Under these conditions, residual binding to the biotin surface of the cuvette could be regarded as unspecific, and was used as a measure of baseline variation. Binding equilibrium in the experimental cuvette was considered to be attained after no binding was detected as compared to negative control.
The actual dissociation constants (Kd) were calculated for the AVRs according to the kass and kdiss rates measured in a separate assay in different protein concentrations (varying between 10 μM and 100 pM) (Table 4 and FIG. 6). The binding seemed to follow two-order or even more complex kinetics. However, the first 1000 seconds of the binding fitted considerably well to the bi-phasic curve. All measured dissociation rate constants (kdiss) followed the first-order kinetics. Because of the extremely high binding, affinities of the AVRs for biotin could not be determined except for AVR1, AVR2 and AVR7. Binding to 2-iminobiotin was determined only for AVR4/5, and it was similar to that of avidin. The lack of binding for the other AVRs was surprising, since most of them were purified using 2-iminobiotin agarose.

The nature of data set [4]: Differential scanning calorimetry of avidin and AVR4/5 forms. Type of data set: physicochemical. The procedure:
The thermodynamics of the heat-induced unfolding of the proteins were studied using DSC. The transition midpoint of heat-induced denaturation (Tm) of the avidin and different AVR4/5 forms was studied using a Nano II differential scanning calorimeter (Calorimetric Sciences Corporation, Provo, Utah, USA). The reference cell was filled with buffer whereas the sample cell was filled with proteins dissolved in 50 mM sodium phosphate buffer, pH 7.0 containing 100 mM NaCl. Avidin and AVR4/5(C124S) were also analyzed in 50 mM Na-acetate pH 4.0 containing 100 mM NaCl. Furthermore, AVR4/5 was analyzed in the presence of 2-mercaptoethanol (0.4% v/v). The samples (1.6-9.6 μM) were analyzed both in the absence and presence of a three fold molar excess of biotin/subunit. All samples were degassed before being loaded into the DSC. The thermograms were recorded as a function of temperature; between 25 and 130° C. at a rate of 55.6° C./h (Gonzalez, M., Argarana, C. E. & Fidelio, G. D. (1999) Biomol. Eng. 16, 67-72; Nordlund, H. R., Laitinen, O. H., Uotila, S. T., Nyholm, T., Hytönen, V. P., Slotte, J. P. & Kulomaa, M. S. (2003) J. Biol. Chem. 278, 2479-2483). Data was analyzed using Microcal Origin 6.0 and Cpcalc 2.1 (Applied Thermodynamics, Hunt Valley, Md.). The change in heat capacity upon unfolding (ΔCp) was measured for avidin and AVR4/5(C124S) using DSC data from measurements in pH 4.0 and 7.0. ΔCp was then obtained from the slope of ΔH vs. Tm (Liu, Y. & Sturtevant, J. M. (1996) Biochemistry 35, 3059-3062).
A general note: In DSC, transitions show as peaks or steps in heat flow.

Where [5] appears, read: read-out: Kd calculated directly from the binding curves.
Where [6] appears, read: read-out: Kd calculated from the equilibrium response data.

“And” between values parts separate entries of the source, which are not always exact repeats. Identical values can stand only once. Like-named read-outs stand apart in the source and are kept apart here.

B1: AVR1: Recombinant chicken avidin-related protein 1, produced in Sf9 insect cells (protein, UniProt O13153 25-150, looked up)
Avidin-related protein 1: ARKCSLTGKWDNDLGSIMTIGAVNDNGEFNGTYITAVADNPGNITRSPLLGIQHKRACQPTFGFTVHWNFSESTSVFVGQCFVDKSGKEVLKTKWLQRLAVDDISDDWKATRVGNNDFTRQRTVEE
In general, Kd refers to the concentration at which binding is half-saturated. For the molecule B1, in data set [1], the “Dimeric form, relative proportion” value was determined as 40 percentage; the “Monomeric form, relative proportion” value is 40 percentage; the “Tetrameric form, relative proportion” value is on record as 20 percentage. Moreover, the “Reversibility of biotin binding” value in data set [2] is 18% and 18 ± 10%. Moreover, the “pI by isoelectric focusing” value in “Isoelectric focusing” is on record as “≈ 7”. In data set [3], the kass entry is “(5.5 ± 1.5) × 10^4 M^−1 s^−1” and the kdiss entry is “(2.4 ± 0.8) × 10^−3 s^−1”. The dissociation constant Kd in data set [3] (setting [5]) was 44 nM. The Kd in data set [3] (setting [6]) was 100 nM.

B2: AVR7: Recombinant chicken avidin-related protein 7, produced in Sf9 insect cells (protein, UniProt P56736 25-150, looked up)
Avidin-related protein 7: ARKCSLTGEWDNNLGSNMTIGAVNDNGEFNGTYITAVADNPGNIKLSPLLGIQHKRACQPTFGFTVHWNFSESTSVFVGQCFIDRSGKEVLKTKWLQRLAVDDISDDWKATRVGYNNFTRQRTVEE
For B2, in data set [1], the “Dimeric form, relative proportion” value stood at 20 percentage and the “Monomeric form, relative proportion” value turned out to be 80 percentage. Moreover, in data set [2], the “Reversibility of biotin binding” value amounted to 3 ± 3%. In the data set “Isoelectric focusing”, the “pI by isoelectric focusing” value is “≈ 7”. Also, the kass entry in data set [3] is reported as “(1.8 ± 0.2) × 10^5 M^−1 s^−1”. Moreover, the equilibrium dissociation constant (Kd) in data set [3] (setting [6]) was 4.5 nM.

B3: AVR2: Recombinant chicken avidin-related protein 2, produced in Sf9 insect cells (protein, UniProt P56732 25-150, looked up)
Avidin-related protein 2: ARKCSLTGEWDNDLGSIMTIGAVNDNGEFDGTYITAVADNPGNITLSPLLGIQHKRASQPTFGFTVHWNFSESTSVFVGQCFVDRSGKEVLKTKWLQRLAVDDISDDWIATRVGNNDFTRQHTVEE
Turning to B3, the “Monomeric form, relative proportion” value in data set [1] stood at 100 percentage. In addition, in data set [2], the “Reversibility of biotin binding” value amounted to 94 ± 3%. For the same molecule, the “pI by isoelectric focusing” value in “Isoelectric focusing” is “≈ 5”. Moreover, the kass result in data set [3] is recorded as “(1.8 ± 0.1) × 10^4 M^−1 s^−1”. In addition, in data set [3], the kdiss entry is given as “(4.6 ± 1.1) × 10^−3 s^−1”. In addition, the results for the Kd in data set [3] (setting [5]) and in data set [3] (setting [6]) were 52 nM and 1700 nM, respectively.

B4: AVR6: Recombinant chicken avidin-related protein 6, produced in Sf9 insect cells (protein, UniProt P56735 25-150, looked up)
Avidin-related protein 6: ARKCSLTGEWDNNLGSIMTIGAVNDNGEFNGTYITAVADNPGNIKLSPLLGIQHKRACQPTFGFTVHWNFSESTSVFVGQCFVDRSGKEVLKTKWLQRLAVDDISDDWKATRVGYNNFTRQRTVEE
As for B4, in data set [1], the “Dimeric form, relative proportion” value is listed as 50 percentage and the “Monomeric form, relative proportion” value was 50 percentage. The “Reversibility of biotin binding” value in data set [2] came out at 5 ± 3%. Further, in the data set “Isoelectric focusing”, the “pI by isoelectric focusing” value was “≈ 7”. In addition, in data set [3] (setting [6]), the Kd was under 10 nM.

B5: AVR4/5 + 2-mercaptoethanol: AVR4/5 analyzed in the presence of 2-mercaptoethanol (0.4% v/v) (protein, UniProt P56734 25-150, looked up)
Avidin-related protein 4/5: ARKCSLTGKWTNNLGSIMTIRAVNSRGEFTGTYLTAVADNPGNITLSPLLGIQHKRASQPTFGFTVHWNFSESTTVFTGQCFIDRNGKEVLKTMWLLRSSVNDISYDWKATRVGYNNFTRLCTVEE
modifications: with 2-mercaptoethanol
Broadly, the ΔTm is the shift of the melting midpoint relative to a reference. Turning to B5, the “DSC Tm(−biotin)” value in data set [4] (50 mM sodium phosphate pH 7.0, 100 mM NaCl) worked out at 106.5 ± 0.3 °C. Besides, the ΔTm in data set [4] (change in Tm upon addition of a three-fold molar excess of biotin) turned out to be 18.7 °C. The molecule further registered a ΔH of unfolding in data set [4] (sample without biotin) of 169 ± 6.21 kcal/mol. Further, the “DSC Tm (+biotin)” value in data set [4] (three-fold molar excess of biotin, pH 7.0) was 125.2 ± 0.1 °C.

B6: AVR3: Recombinant chicken avidin-related protein 3, produced in Sf9 insect cells (protein, UniProt P56733 25-150, looked up)
Avidin-related protein 3: ARKCSLTGKWTNNLGSIMTIRAVNSRGEFAGTYLTAVADNPGNIKLSPLLGIQHKRACQPTFGFTVHWNFSESTSVFVGQCFIDRSGKEVLKTKWLQRLAVDDISDDWKATRVGYNNFTRQRTVEE
Regarding B6, in data set [1], the “Dimeric form, relative proportion” value is listed as 50 percentage and the “Monomeric form, relative proportion” value turned out to be 50 percentage. Besides, the “Reversibility of biotin binding” value in data set [2] is given as 3 ± 2%. Further, the “pI by isoelectric focusing” value in the data set “Isoelectric focusing” is on record as “≈ 10”. Moreover, in data set [3] (setting [6]), the dissociation constant Kd is under 10 nM.
